This note sets out measurements from the domain aggregation screens of Martell et al. (2025).
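Note: 20 min heating vs room temperature control held 20 min.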

The data set in a line: soluble fraction after stress (log2 fold change); higher = more stays soluble; pooled small domains, quantitative proteomics. The settings on record: stress: 75 degC.
For the sequence “HMSPFYILDEVEAALDDTNLGRLLEIYEELRENSQLLVITHQKRTMEVGDALYGVTMRGDGVSAVISQRLR”, the “soluble fraction (log2)” value turned out to be 0.306.

On to “HMSPKYLELVRWINTQIQEKKLTAGQKMYSENELKEMFGVSRQTVRHAISVLEGEGMIRRVRGSGTYINDN”, for which the “soluble fraction (log2)” value was -2.42.

As to “HMSPLALLTPRELDILRAMTAGASNKEIARQFAIAETTVKIHVQHILRKLDVTTRVHAAVMASESGL”, the “soluble fraction (log2)” value is -3.05.

As for “HMSPPALAVQRDGSNVQISWPGAEEGWRLESSAEPSGAAWDLIAQNPTPVGGRWTVSLTEPTGRRFYRLVK”, the “soluble fraction (log2)” value is -0.0804.

In the case of “HMSPSLVEAMRLRMYEMGLNQAKLSELLGVSPSRVSDYLTGRSEPTLKVARDISRKLNIDASIVLG”, the “soluble fraction (log2)” value is -1.68.

In the case of “HMSPSQFRSKSLLVEINFASRQMDGEILQGDYAGKRLSELTEAEVQELTAWLKQSDRESFVLLQAYLLRSG”, the “soluble fraction (log2)” value was -2.46.

In the case of “HMSPSSPNQILGQYPKTKNDIILSSGRYGPYLKYNKKNYSLGNNISVEKLSLEEAVKIIDLKDKK”, the “soluble fraction (log2)” value was -0.291.

Turning to “HMSPTDKATVNVYALNVRTGPGTNYKVLGSVIKGTELQVLGSSGKWLKVKYGNREAYVAGWLVK”, the “soluble fraction (log2)” value was -2.85.

Turning to “HMSPTEQEKIGLFIKKLREEKNLTQEAFASLLKTSQSAVARIESGNQNITIEQLMKIGEVLNHNIVSI”, the “soluble fraction (log2)” value was -0.212.

With “HMSQDPLETYYPQWSAAVKQSNPDAEIIRDTDGKYYVEGMTKNRVAVIYENPHLVRLVNATTNVHVE”, the “soluble fraction (log2)” value was determined as 0.0377.

Turning to “HMSQDTLIGRVGVIVIGQARTGSPAQVRVKDGFGQTHYVMAEPDSEGVLKQGEAVLLVSLEGNTFKAILNP”, the “soluble fraction (log2)” value is -2.41.

Regarding “HMSQDVLLKRSGDQIEVKITEVGEDYLKYKKKGFENGPDFKINTSDVFMVTFANGEKMMFEES”, the “soluble fraction (log2)” value was -0.033.

With “HMSQEAKLAMPVTDLRLSARTLNALELANIRTVRDLVSHTEEQLLELRNFGETALAEVKEKLAALGLRLGM”, the “soluble fraction (log2)” value is 0.0588.

In the case of “HMSQESIMPNLVGSTEDEAKAIAVEYGFQLNVISRVNNSQYPAGVIIDQNVDEGVRIKAGYPVGVTIS”, the “soluble fraction (log2)” value was -0.237.

Take “HMSQIAENNQKYVGTIQKVLVEGTSKNNDDMLTGRTDSNKVVIFEGDKKLIGNMVELKIVSEHMWYLKGEL”: the “soluble fraction (log2)” value is -0.0812.

As for “HMSQISKLWRPSEDVTEILTRSGMDSEFLEGLIPEFIIYWSERADVLVSYNSKFIEHARLKWAQHSAEIKT”, the “soluble fraction (log2)” value is -4.48.

As for “HMSQLLHELLAHVLKDRIISGEWPAGSRIMSEHALQERYGVSRGTVRRALAQLVQEGLLVQRKGKGTFVTR”, the “soluble fraction (log2)” value was -2.59.

Take “HMSQLVTGVLRNLNDISEKIAAGKAVPEMLGRLENMQQMIANLKGNEGLIKSISILTRSAQDALR”: the “soluble fraction (log2)” value was -0.484.

On to “HMSQPLYWQIRRMVIDHDDANDVLQNTFIKAWSNIGSFRGDAKFSTWLYKIAVNESITFINKKKVQN”, for which the “soluble fraction (log2)” value is -0.44.

With “HMSQPYFELAAADMEALRNALSTIREIESVVLSGKIFHVEVREDLDPGTMNKLAFERGITLTHLVKKKN”, the “soluble fraction (log2)” value was -2.89.

On to “HMSQRINLNSASIEDMQSLDISNEKIDSIIDYRNRYGNIHNIYELLKIPGITIGDIHSIRNAVTVEIPH”, for which the “soluble fraction (log2)” value is -0.104.

“HMSQSLSGWAAKDLEVKSGADASYRTVGRLPKGSKVSGKIINGYLHIEFDGSMRYVPVSGISKTE”: the “soluble fraction (log2)” value is -0.6.

As for “HMSQSYHLADRGQSLGTLDYQAVLVGLATGRLSPDTLSWQEGEAGWVALRQRPEFASGVSAVASL”, the “soluble fraction (log2)” value was 0.404.

Take “HMSRAHTELEEKLLTMLEENDMTLPMRVISNIASRIEGIIIPEEKILEVLKKSYDRYREHQMD”: the “soluble fraction (log2)” value was -0.267.

In the case of “HMSRARSRQTSMLEAVAGLGPARRRALLKQFGGLQGVLRAGIEDLSRAPGIGPALAQAIFEHLHPGA”, the “soluble fraction (log2)” value is -0.482.

Turning to “HMSREQARRFYFDTWAKHRASQPLTDLEKIALTVMLLHPEYHSLLDKPDHYVDKDYSPEAGQTNPFLHM”, the “soluble fraction (log2)” value was -1.72.

As to “HMSRIDRKGLTSQIVNHLSKNPGKNFTLKQFFRNLKLNTHPLKMLAVDVLNKLLDTNFITRNEDGEFFLKA”, the “soluble fraction (log2)” value was determined as 0.154.

As to “HMSRLMIVTPDGRIMDDVPEFGEVRTTTDVNGRVLVLDRNNVVIGFEMTPREYRREFGRNPF”, the “soluble fraction (log2)” value was -1.12.

In the case of “HMSRQAPIGHRIRGRRKDIGMTQNALAKAAGISPSYLNLIEHNRRSIGGGLLMRIAAILDIHPHTL”, the “soluble fraction (log2)” value was -2.87.

“HMSRTLLVYVTGAVRQPGVYELPEGSRFFDAVKAAGDVLPYAVMEDINMAEPLSDGMKIHIPLDPEQ”: the “soluble fraction (log2)” value is -0.687.

Take “HMSRVFSPSELEIRHAQDVFQALEEAKRQGKGAVSLNGKMIDAPIVARAKLVLEAAAAIYGED”: the “soluble fraction (log2)” value was -0.379.

Turning to “HMSRVHHGFNISIARNRKGLKQAALADMLGISQQRLSQLENQRVVKDEILEKVSEATGVSVEDLKTIE”, the “soluble fraction (log2)” value was -0.08.

“HMSRVSVDGEEVNFEGEIPDDPSRIYELLMGALSEQSRVVVKFFVDGKDALLDEGFPSRYQMIEAESV”: the “soluble fraction (log2)” value is -0.0462.

On to “HMSRYAFEGNVVRLNQKDFDSWKALFTNIDLVSELTRLDIEFTHDKPKNWFSTASAKLNYQNKNAY”, for which the “soluble fraction (log2)” value is -2.51.

“HMSRYLLPYAFARTQQVLLEEKSGELTLWMHSGSNLGGISEVTRKYAVQHVTHEPMDALLNRISSAYAN”: the “soluble fraction (log2)” value is -3.34.

Regarding “HMSSAVKRALAELPENWRMIVYYRVVEGLSYAEIAKVLDIPDGSVMSGLHRGKKMLRGLLLEYAQQEGYD”, the “soluble fraction (log2)” value is -1.79.

On to “HMSSDDEAFKRELVGLIPHLRAFARTLTGDPTAADDLAQDAMMKAWDARASYQMGTNMKAWTFMILRNQFY”, for which the “soluble fraction (log2)” value was -2.53.

On to “HMSSDKVWSFEASGKQLQASYVAFENETVYLRASEDGSLLQFPLTDFGMKDQLVVLELYELSAKINRSN”, for which the “soluble fraction (log2)” value is -0.934.

In the case of “HMSSDLSNVVKIIDTLKHKKGALLPILHQIQREIGYIPLKTIDTIAKKLQQTPAEIHGVISFYHQFRTS”, the “soluble fraction (log2)” value turned out to be 0.0116.

For the sequence “HMSSEASALRGWLQTSQYQGSVTLFANALNVPLKTVEDWVYGRSKPSLQHWSQLYEATGLPEYQQ”, the “soluble fraction (log2)” value was -0.387.

As for “HMSSFRDISGTVYVKASAANLRSEPNTSSLIVDTLYYGASLQRISTNDIWTKVKTGNGQIGFMDNSLFQT”, the “soluble fraction (log2)” value is -3.12.

On to “HMSSGSLLTEREIEILAEMAKGLTNKAIGEKLFISVATVKTHILNIYRKLEVSSRVTAVNKAKQMRL”, for which the “soluble fraction (log2)” value is -2.43.

“HMSSGTAYATDAVNVRSGPGTSYTVLGYLSRGEKVTITGTVSNGWTQIQLPGNRLGYVSSAYLSASYPS”: the “soluble fraction (log2)” value was -0.85.

On to “HMSSHNIALDQDVVVTQLKGKVYLVAADGSQKQLAEGDILPKDAVLITPEGASFKGGNQTFTLS”, for which the “soluble fraction (log2)” value was found to be 0.103.

As to “HMSSIFTRIIAGEIPSYKVAEDENYYAFLDINPLTKGHTLVVPKMEVDYIFDLDDKTLAGMMLFAKKG”, the “soluble fraction (log2)” value is -0.129.

Consider “HMSSKIKYSEFITMLDKGEVESVVLKSDTLTITLKHGTGVAAQTKTTTLMEDLSELTKRLEKAGIKDFDK”, for which the “soluble fraction (log2)” value was -1.38.

As for “HMSSLDTLTARETQILAEMAQGKNNAAIAAAVSVSERAVEKHTNSIFAKLGLSEEKDVNRRVMAVLLFLGR”, the “soluble fraction (log2)” value is -3.6.

“HMSSLEQVYPNPVSSILKLNSFIKNYKILNATGHEVLKGSGNTINVGKLPSGSYFLITSENYSIKFIK”: the “soluble fraction (log2)” value was -1.08.

Regarding “HMSSLSGVRRTLLDSLGMPPDASDEELADRREELRGSLDTAPQARRKWIEQQLARIDAITALDASG”, the “soluble fraction (log2)” value was 0.106.

For the sequence “HMSSPEAAEVQRLLKDGQHVQALKIIDESLARNPKDPQMRFRRGVALSMLDRKNEALAVFQKLVED”, the “soluble fraction (log2)” value is -0.182.
